{"source": "patent US20260201033A1", "about": "(LTZ THERAPEUTICS, published 2026)", "experiment_in_all_cases": "cell-based or functional assay", "key": {"[1]": {"target": "T1, CD79b on Ramos cells and on endogenous B cells of human PBMCs (human, UniProt P40259 29-229)", "T1 sequence (looked up)": "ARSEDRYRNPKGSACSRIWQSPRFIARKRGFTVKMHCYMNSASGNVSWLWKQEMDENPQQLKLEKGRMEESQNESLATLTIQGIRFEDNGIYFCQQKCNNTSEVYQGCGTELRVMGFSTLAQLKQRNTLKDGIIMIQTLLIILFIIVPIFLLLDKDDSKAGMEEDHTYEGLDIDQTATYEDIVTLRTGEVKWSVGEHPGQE"}, "[2]": {"target": "T1, CD79b on Ramos cells and on endogenous …", "remark": "listed apart in the source"}, "[3]": {"target": "T1, CD79b on Ramos cells and on endogenous …", "remark": "listed apart in the source"}, "[4]": {"target": "T1, CD79b on Ramos cells and on endogenous …", "remark": "listed apart in the source"}, "[5]": {"target": "T1, CD79b on Ramos cells and on endogenous …", "remark": "listed apart in the source"}, "[6]": {"target": "T1, CD79b on Ramos cells and on endogenous …", "remark": "listed apart in the source"}}, "data": [{"binder": "CD79b/5C7 (2+1 B) Fc-silenced (bispecific antibody, human IgG1, kappa, L234A L235A) heavy 1: EQQLVETGGGLIQPGGSLRLSCAASGFTINIDYWISWVRQAPGKGLEWIGIIDPGDGTTYFAIWVSGRFTISFDNSKNTVYLQMNSLRAEDTAVYFCVREFSASAYQYDLWGPGTLVTVSSASTKGPSVFPLAPSSKSTSGGTAALGCLVKDYFPEPVTVSWNSGALTSGVHTFPAVLQSSGLYSLSSVVTVPSSSLGTQTYICNVNHKPSNTKVDKKVEPKSCDKTHTCPPCPAPEAAGGPSVFLFPPKPKDTLMISRTPEVTCVVVDVSHEDPEVKFNWYVDGVEVHNAKTKPREEQYNSTYRVVSVLTVLHQDWLNGKEYKCKVSNKALGAPIEKTISKAKGQPREPQVCTLPPSRDELTKNQVSLSCAVKGFYPSDIAVEWESNGQPENNYKTTPPVLDSDGSFFLVSKLTVDKSRWQQGNVFSCSVMHEALHNRFTQKSLSLSPGK heavy 2: not shown light: ELVMTQSPATLSVSPGERATLSCRASEDIENYLAWYQQKPGQPPRLLIYRASTLSSGVPARFSGSGSGTEFTLTISSLQSEDFAVYYCQQGYRNSNVDNPFGGGTKVEIKRTVAAPSVFIFPPSDEQLKSGTASVVCLLNNFYPREAKVQWKVDNALQSGNSQESVTEQDSKDSTYSLSSTLTLSKADYEKHKVYACEVTHQGLSSPVTKSFNRGEC", "values": [{"measurement": "IC50 (nM), killing of endogenous B cells by PBMCs, Donor 367", "setting": "[1]", "result": 0.0155, "unit": "nM"}, {"measurement": "IC50 (nM), killing of endogenous B cells by PBMCs, Donor 431", "setting": "[1]", "result": 0.0155, "unit": "nM"}, {"measurement": "IC50 (nM), Ramos cell killing by M1 macrophages, Donor 431", "setting": "[2]", "result": 0.005, "unit": "nM"}, {"measurement": "IC50 (nM), Ramos cell killing by M0 macrophages, Donor 022", "setting": "[3]", "result": 0.003, "unit": "nM"}, {"measurement": "IC50 (nM), Ramos cell killing by M0 macrophages, Donor 431", "setting": "[3]", "result": 0.002, "unit": "nM"}, {"measurement": "IC50 (nM), Ramos cell killing by PBMCs (test 2), Donor 431", "setting": "[4]", "result": 0.0155, "unit": "nM"}, {"measurement": "IC50 (nM), Ramos cell killing by PBMCs (test 3), Donor 281", "setting": "[5]", "result": 0.0165, "unit": "nM"}, {"measurement": "IC50 (nM), Ramos cell killing by PBMCs (test 3), Donor 367", "setting": "[5]", "result": 0.0685, "unit": "nM"}, {"measurement": "IC50 (nM), Ramos cell killing by M2 macrophages, Donor 022", "setting": "[6]", "result": 0.002, "unit": "nM"}, {"measurement": "IC50 (nM), Ramos cell killing by M2 macrophages, Donor 431", "setting": "[6]", "result": 0.002, "unit": "nM"}]}, {"binder": "CD79b/5C7 (2+1 B) Fc-optimized (bispecific antibody, human IgG1, kappa) heavy 1: EQQLVETGGGLIQPGGSLRLSCAASGFTINIDYWISWVRQAPGKGLEWIGIIDPGDGTTYFAIWVSGRFTISFDNSKNTVYLQMNSLRAEDTAVYFCVREFSASAYQYDLWGPGTLVTVSSASTKGPSVFPLAPSSKSTSGGTAALGCLVKDYFPEPVTVSWNSGALTSGVHTFPAVLQSSGLYSLSSVVTVPSSSLGTQTYICNVNHKPSNTKVDKKVEPKSCDKTHTCPPCPAPELLAGPSVFLFPPKPKDTLMISRTPEVTCVVVDVSHEDPEVKFNWYVDGVEVHNAKTKPREEQYNSTYRVVSVLTVLHQDWLNGKEYKCKVSNKALPLPEEKTISKAKGQPREPQVYTLPPSRDELTKNQVSLSCAVKGFYPSDIAVEWESNGQPENNYKTTPPVLDSDGSFFLVSKLTVDKSRWQQGNVFSCSVMHEALHNHYTQKSLSLSPGK heavy 2: EQQLVETGGGLIQPGGSLRLSCAASGFTINIDYWISWVRQAPGKGLEWIGIIDPGDGTTYFAIWVSGRFTISFDNSKNTVYLQMNSLRAEDTAVYFCVREFSASAYQYDLWGPGTLVTVSSASTKGPSVFPLAPSSKSTSGGTAALGCLVKDYFPEPVTVSWNSGALTSGVHTFPAVLQSSGLYSLSSVVTVPSSSLGTQTYICNVNHKPSNTKVDKKVEPKSCDKTHTCPPCPAPELLAGPSVFLFPPKPKDTLMISRTPEVTCVVVDVSHEDPEVKFNWYVDGVEVHNAKTKPREEQYNSTYRVVSVLTVLHQDWLNGKEYKCKVSNKALPLPEEKTISKAKGQPREPQVYTLPPSRDELTKNQVSLWCLVKGFYPSDIAVEWESNGQPENNYKTTPPVLDSDGSFFLYSKLTVDKSRWQQGNVFSCSVMHEALHNHYTQKSLSLSPGKGGGGSGGGGSGGGGSDIQMTQSPSSLSASVGDRVTITCQASESVDRNNRLAWFQQKPGKPPKLLIYTTSTLASGVPSRFSGSGSGTDFTLTISSLQPEDVATYYCAGYRGAHTDGDAFGGGTKVEIKGGGGSGGGGSGGGGSGGGGSEQQLVESGGGLVKPGGSLRLSCAASGFSFSRSSYMCWVRQAPGKGLEWIGCLSVGDGHTYYASWAKGRFTISKDSAKNSVYLQMNSLRAEDTAVYFCARAPSYSGDGGHGYDLWGPGTLVTVSS light: ELVMTQSPATLSVSPGERATLSCRASEDIENYLAWYQQKPGQPPRLLIYRASTLSSGVPARFSGSGSGTEFTLTISSLQSEDFAVYYCQQGYRNSNVDNPFGGGTKVEIKRTVAAPSVFIFPPSDEQLKSGTASVVCLLNNFYPREAKVQWKVDNALQSGNSQESVTEQDSKDSTYSLSSTLTLSKADYEKHKVYACEVTHQGLSSPVTKSFNRGEC", "values": [{"measurement": "IC50 (nM), killing of endogenous B cells by PBMCs, Donor 234", "setting": "[1]", "result": 0.0207, "unit": "nM"}, {"measurement": "IC50 (nM), killing of endogenous B cells by PBMCs, Donor 367", "setting": "[1]", "result": 0.104, "unit": "nM"}, {"measurement": "IC50 (nM), killing of endogenous B cells by PBMCs, Donor 431", "setting": "[1]", "result": 0.104, "unit": "nM"}, {"measurement": "IC50 (nM), Ramos cell killing by M1 macrophages, Donor 431", "setting": "[2]", "result": 0.005, "unit": "nM"}, {"measurement": "IC50 (nM), Ramos cell killing by M0 macrophages, Donor 022", "setting": "[3]", "result": 0.003, "unit": "nM"}, {"measurement": "IC50 (nM), Ramos cell killing by M0 macrophages, Donor 431", "setting": "[3]", "result": 0.004, "unit": "nM"}, {"measurement": "IC50 (nM), Ramos cell killing by PBMCs (test 2), Donor 234", "setting": "[4]", "result": 0.0639, "unit": "nM"}, {"measurement": "IC50 (nM), Ramos cell killing by PBMCs (test 2), Donor 431", "setting": "[4]", "result": 0.0104, "unit": "nM"}, {"measurement": "IC50 (nM), Ramos cell killing by PBMCs (test 3), Donor 281", "setting": "[5]", "result": 0.0112, "unit": "nM"}, {"measurement": "IC50 (nM), Ramos cell killing by PBMCs (test 3), Donor 367", "setting": "[5]", "result": 0.0186, "unit": "nM"}, {"measurement": "IC50 (nM), Ramos cell killing by M2 macrophages, Donor 022", "setting": "[6]", "result": 0.002, "unit": "nM"}, {"measurement": "IC50 (nM), Ramos cell killing by M2 macrophages, Donor 431", "setting": "[6]", "result": 0.001, "unit": "nM"}]}, {"binder": "CD79b/5C7 (2+1 A) Fc-silenced (bispecific antibody, human IgG1, kappa, L234A L235A) heavy 1: EQQLVETGGGLIQPGGSLRLSCAASGFTINIDYWISWVRQAPGKGLEWIGIIDPGDGTTYFAIWVSGRFTISFDNSKNTVYLQMNSLRAEDTAVYFCVREFSASAYQYDLWGPGTLVTVSSASTKGPSVFPLAPSSKSTSGGTAALGCLVKDYFPEPVTVSWNSGALTSGVHTFPAVLQSSGLYSLSSVVTVPSSSLGTQTYICNVNHKPSNTKVDKKVEPKSCDGGGGSGGGGSGGGGSEQQLVETGGGLIQPGGSLRLSCAASGFTINIDYWISWVRQAPGKGLEWIGIIDPGDGTTYFAIWVSGRFTISFDNSKNTVYLQMNSLRAEDTAVYFCVREFSASAYQYDLWGPGTLVTVSSASTKGPSVFPLAPSSKSTSGGTAALGCLVKDYFPEPVTVSWNSGALTSGVHTFPAVLQSSGLYSLSSVVTVPSSSLGTQTYICNVNHKPSNTKVDKKVEPKSCDKTHTCPPCPAPEAAGGPSVFLFPPKPKDTLMISRTPEVTCVVVDVSHEDPEVKFNWYVDGVEVHNAKTKPREEQYNSTYRVVSVLTVLHQDWLNGKEYKCKVSNKALGAPIEKTISKAKGQPREPQVCTLPPSRDELTKNQVSLSCAVKGFYPSDIAVEWESNGQPENNYKTTPPVLDSDGSFFLVSKLTVDKSRWQQGNVFSCSVMHEALHNRFTQKSLSLSPGK heavy 2: not shown light: ELVMTQSPATLSVSPGERATLSCRASEDIENYLAWYQQKPGQPPRLLIYRASTLSSGVPARFSGSGSGTEFTLTISSLQSEDFAVYYCQQGYRNSNVDNPFGGGTKVEIKRTVAAPSVFIFPPSDEQLKSGTASVVCLLNNFYPREAKVQWKVDNALQSGNSQESVTEQDSKDSTYSLSSTLTLSKADYEKHKVYACEVTHQGLSSPVTKSFNRGEC", "values": [{"measurement": "IC50 (nM), Ramos cell killing by M1 macrophages, Donor 100", "setting": "[2]", "result": 0.001, "unit": "nM"}, {"measurement": "IC50 (nM), Ramos cell killing by M0 macrophages, Donor 022", "setting": "[3]", "result": 0.003, "unit": "nM"}, {"measurement": "IC50 (nM), Ramos cell killing by M0 macrophages, Donor 100", "setting": "[3]", "result": 0.002, "unit": "nM"}, {"measurement": "IC50 (nM), Ramos cell killing by M2 macrophages, Donor 022", "setting": "[6]", "result": 0.003, "unit": "nM"}, {"measurement": "IC50 (nM), Ramos cell killing by M2 macrophages, Donor 100", "setting": "[6]", "result": 0.001, "unit": "nM"}]}]}
